We go through 1 molecule from publication PMC5830917 (The EMBO Journal, 2018).

The experiment concerns the target T1, GFP-NBR1 (human, UniProt Q14596-1 1-966).
T1 construct: NBR1, human, ORF amplified from a HeLa cDNA library; The TEV site lies between StrepII and GFP, so the cleaved protein keeps GFP; also called 6xHis‐Strep‐TEV‐GFP‐NBR1; Strep‐TEV‐GFP‐NBR1; source: Sf9 insect cells (Bac-to-Bac), purified (HisTrap, TEV cleavage, Superose6); not shown: His6, N-terminal, cleaved; StrepII, N-terminal, cleaved; GFP (meGFP, A206K), N-terminal, kept
T1 sequence (looked up): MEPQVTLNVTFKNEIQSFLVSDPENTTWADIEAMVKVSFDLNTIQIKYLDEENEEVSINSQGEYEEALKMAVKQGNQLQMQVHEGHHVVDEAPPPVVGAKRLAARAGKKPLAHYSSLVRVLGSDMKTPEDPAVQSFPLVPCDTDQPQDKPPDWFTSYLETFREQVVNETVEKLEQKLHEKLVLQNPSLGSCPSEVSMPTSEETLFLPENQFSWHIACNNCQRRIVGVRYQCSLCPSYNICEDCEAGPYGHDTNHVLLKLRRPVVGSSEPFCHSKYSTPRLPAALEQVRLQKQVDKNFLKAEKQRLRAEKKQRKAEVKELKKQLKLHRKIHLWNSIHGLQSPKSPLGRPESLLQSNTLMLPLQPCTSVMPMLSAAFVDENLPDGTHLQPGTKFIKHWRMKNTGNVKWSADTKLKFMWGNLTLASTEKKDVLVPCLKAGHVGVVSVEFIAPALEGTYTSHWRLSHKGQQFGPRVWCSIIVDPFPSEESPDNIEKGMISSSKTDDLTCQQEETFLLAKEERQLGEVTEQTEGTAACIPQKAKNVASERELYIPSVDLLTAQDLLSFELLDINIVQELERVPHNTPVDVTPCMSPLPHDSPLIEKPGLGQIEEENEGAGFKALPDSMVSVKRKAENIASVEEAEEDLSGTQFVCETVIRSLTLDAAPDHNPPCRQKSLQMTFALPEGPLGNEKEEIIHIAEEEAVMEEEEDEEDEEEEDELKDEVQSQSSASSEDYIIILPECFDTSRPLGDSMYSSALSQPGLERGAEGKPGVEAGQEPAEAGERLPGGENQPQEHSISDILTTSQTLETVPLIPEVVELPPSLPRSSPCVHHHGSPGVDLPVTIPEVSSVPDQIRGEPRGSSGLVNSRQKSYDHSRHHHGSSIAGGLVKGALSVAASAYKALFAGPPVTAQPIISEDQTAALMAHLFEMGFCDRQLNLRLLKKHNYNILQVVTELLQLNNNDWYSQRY
In words: microscopy-based protein-protein interaction assay on beads; GFP-NBR1 on GFP-TRAP beads; 2 μM mCherry-p62 variants at equilibrium in 25 mM HEPES pH 7.5, 150 mM NaCl, 1 mM DTT; spinning disk imaging. The conditions noted are these: both partners purified.

B1: mCherry-p62 PB1 (1–102) (domain or fragment, UniProt Q13501 1-102, looked up)
chain: MASLTVKAYLLGKEDAAREIRRFSFCCSPEPEAEAEAAAGPGPCERLLSRVAALFPALRPGGFQAHYRDEDGDLVAFSSDEELTMAMSYVKDDIFRIYIKEK
notes: p62/SQSTM1, PB1 domain, residues 1-102; also called isolated PB1 domain of p62; source: recombinant, purified; site-directed mutagenesis on the plasmid for the full-length protein (pET-mCherry-p62 PB1); not shown: mCherry, N-terminal, kept
Take B1: the binding result is listed as “binds”.
